# Measurements taken from patent publication US20150037340A1 (PEIRRE FABRE MEDICAMENT, published 2015).
# T1: human protein Axl (cellular form on the cell surface) (human, UniProt P30530 26-894)
# T1 construct: also called Axl receptor; membrane Axl receptor
# T1 sequence: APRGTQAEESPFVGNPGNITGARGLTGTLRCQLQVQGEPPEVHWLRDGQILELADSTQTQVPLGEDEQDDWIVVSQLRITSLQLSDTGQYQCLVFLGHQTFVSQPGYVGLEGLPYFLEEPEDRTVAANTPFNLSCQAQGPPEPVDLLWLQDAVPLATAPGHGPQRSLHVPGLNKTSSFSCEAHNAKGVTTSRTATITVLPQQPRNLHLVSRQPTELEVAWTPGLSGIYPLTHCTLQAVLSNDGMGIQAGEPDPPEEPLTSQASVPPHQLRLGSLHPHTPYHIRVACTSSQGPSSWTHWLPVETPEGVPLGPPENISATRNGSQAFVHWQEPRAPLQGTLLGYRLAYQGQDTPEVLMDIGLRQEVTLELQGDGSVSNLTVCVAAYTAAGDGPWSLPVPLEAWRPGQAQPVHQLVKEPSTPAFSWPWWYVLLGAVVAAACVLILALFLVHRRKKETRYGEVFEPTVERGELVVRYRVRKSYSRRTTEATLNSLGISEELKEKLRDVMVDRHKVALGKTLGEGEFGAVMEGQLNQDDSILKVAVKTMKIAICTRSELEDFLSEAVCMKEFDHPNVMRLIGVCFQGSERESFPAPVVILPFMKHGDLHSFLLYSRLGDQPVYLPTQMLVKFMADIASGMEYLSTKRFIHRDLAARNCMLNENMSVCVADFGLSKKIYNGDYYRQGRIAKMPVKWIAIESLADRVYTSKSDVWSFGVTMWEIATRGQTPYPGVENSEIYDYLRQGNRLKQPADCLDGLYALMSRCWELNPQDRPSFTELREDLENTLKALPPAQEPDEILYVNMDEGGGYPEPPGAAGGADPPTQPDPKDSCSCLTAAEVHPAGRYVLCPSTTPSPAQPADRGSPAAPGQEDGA
# T2: recombinant human Axl-Fc (R and D Systems, cat No 154-AL / 154AL/CF) (human, UniProt P30530 26-451)
# T2 construct: Bought protein; also called rhAxl-Fc; rh Axl-Fc protein; not shown: human IgG Fc portion (detected with anti-human IgG Fc)
# T2 sequence: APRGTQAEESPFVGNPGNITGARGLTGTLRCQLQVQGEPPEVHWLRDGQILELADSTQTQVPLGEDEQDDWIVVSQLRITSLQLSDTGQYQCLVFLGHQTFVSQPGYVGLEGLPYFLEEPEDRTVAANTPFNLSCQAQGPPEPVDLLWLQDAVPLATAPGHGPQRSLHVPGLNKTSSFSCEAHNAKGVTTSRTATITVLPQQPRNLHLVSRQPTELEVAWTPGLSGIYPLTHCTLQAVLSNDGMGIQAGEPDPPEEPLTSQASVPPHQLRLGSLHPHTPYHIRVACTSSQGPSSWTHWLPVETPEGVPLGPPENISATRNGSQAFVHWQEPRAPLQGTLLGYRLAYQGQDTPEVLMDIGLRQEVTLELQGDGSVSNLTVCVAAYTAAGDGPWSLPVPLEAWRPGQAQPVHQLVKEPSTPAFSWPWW
# B1: 1613F12 antibody (murine form) (antibody, V domains shown)
# VH: EVHLQQSGAELVKPGASVKLSCTASGFNIRDTYIHWVKQRPEQGLEWIGRLDPANGHTKYGPNFQGRATMTSDTSSNTAYLQLSSLTSEDTAVYYCARGAYYYGSSGLFYFDYWGQGTTLSVSS
# VL: DVQITQSPSYLATSPGETITINCRASKSISKYLAWYQEKPGKTNKLLIYSGSTLQSGVPSRFSGSGSGTDFTLTISSLEPEDFAMYFCQQHHEYPLTFGAGTELELK
# notes: Whole murine monoclonal antibody purified from a hybridoma; a murine IgG1 (9G4) serves as its isotype control; also called m1613F12; monoclonal antibody 1613F12 derived from the hybridoma I-4505
# Assays:
# [1] = target: T1, human protein Axl (cellular form on the …); assay: flow cytometry on SN12C cells, goat anti-mouse Alexa 488
# Method: (§1) For cell surface binding studies, two fold serial dilutions of a 10 μg/m (6.66 10⁻⁸ M) primary antibody solution (1613F12, MAB154 antibody or mIgG1 isotype control 9G4 Mab) are prepared and are applied on 2.10⁵ cells for 20 min at 4° C. After 3 washes in phosphate-buffered saline (PBS) supplemented with 1% BSA and 0.01% NaN₃, cells were incubated with secondary antibody Goat anti-mouse Alexa 488 (1/500° dilution) for 20 minutes at 4° C. After 3 additional washes in PBS supplemented with 1% BSA and 0.1% NaN₃, cells were analyzed by FACS (Facscalibur, Becton-Dickinson). At least 5000 cells were assessed to calculate the mean value of fluorescence intensity.
# [2] = target: T1, human protein Axl (cellular form on the …); assay: flow cytometry on MDA-MB-231 cells, goat anti-mouse Alexa 488
# Method: as §1
# [3] = target: T2, recombinant human Axl-Fc (R and D …); assay: ELISA on coated rhAxl-Fc, detection with goat anti-mouse IgG-HRP
# Method: Then ½ serial dilutions were done over 12 columns. Plates were washed and a goat anti-mouse (Jackson) specific IgG-HRP was added for 1 h at 37° C. Reaction development was performed using the TMB substrate solution. […] Coating controls were performed in presence of a goat anti-human IgG Fc polyclonal serum labelled with HRP (Jackson, ref 109-035-098) and/or in presence of a HRP-coupled anti-Histidine antibody (R and D Systems, ref: MAB050H). Results are represented in FIGS. 2A, 2B and 2C, respectively.
# [4] = target: T1, human protein Axl (cellular form on the …); assay: flow cytometry on SN12C cells, anti-mouse IgG Alexa488; table under the graph, unit from the axis Log [M]
# Method: Cells were detached using trypsin and cell concentration was adjusted at 1×10⁶ cells/ml in FACS buffer. A volume of 100 μL of cell suspension was incubated with increasing concentrations of either isotype controls or anti-Axl antibodies for 20 min. at 4° C. Cells were then washed three times with FACS buffer and incubated for 20 min. more using either anti-mouse IgG Alexa488 secondary antibody or anti-human IgG Alexa488 secondary antibody at 4° C. in the dark. Cells were washed three times with FACS buffer and resuspended with 100 μl of FACS buffer before adding propidium iodide.
# [5] = target: T2, recombinant human Axl-Fc (R and D …); assay: sandwich ELISA: plate coated with the antibody, rhAxl-Fc titrated (the axis on the sheet reads 'Ab concentration'), detection with a biotinylated anti-Axl antibody and avidin-HRP
# Method: First ELISA experiments were realized. In the assay, 96 well plates (Immulon II, Thermo Fisher) were coated with a 5 μg/m of the 1613F12 solution in 1×PBS, overnight at 4° C. […] For the revelation step, a biotinylated-Axl antibody (in house product) was added at 0.85 μg/m for 1 hour at 37° C. This Axl antibody belongs to a distinct epitopic group. Then an avidin-horseradish peroxidase solution at 1/2000° in diluent buffer is added to the wells. Then the TMB substrate solution is added for 5 min. After addition of the peroxydase stop solution, the absorbance at […] was measured with a microplate reader.
binder,measurement,setting,value
B1,EC50 (read off the curve),[1],~1 nM
same,EC50 (read off the curve),[2],~1 nM
same,EC50 (read off the curve),[3],~1 nM
same,EC50,[4],2.16 nM
same,EC50 (read off the curve),[5],~0.04 µg/mL
